Source: patent publication US20080221057A1, “SECRETED PROTEIN CCDC80 REGULATES ADIPOCYTE DIFFERENTIATION” (Wyeth, priority 2007, published 2008)

Key:
Format in all cases: cell-based, mouse
Ccdc80 mRNA [1] = experiment: Ccdc80 mRNA expression in growth-arrested 3T3-L1 cells treated with adipogenic inducers, real-time PCR; conditions: growth-arrested 3T3-L1 cells treated with one or more adipogenic inducers for 96 hr
Experimental: RNA from undifferentiated and differentiated 3T3-L1 adipocytes, tissues from normal, 8- to 12-week-old male C57BL/6J mice, as well as tissues from 10-week-old male ob/ob and age-matched wild-type control mice, was obtained as described (Lake et al., J. Lipid Res 46:2477-2487, 2005). For thiazolidinedione (TZD) treatment, 10-week-old male ob/ob mice were gavaged once per day with 15 mg/kg rosiglitazone or vehicle for 21 days. Primary adipocytes and stromal vascular fraction were prepared from the epididymal adipose tissue of 8- to 12-week-old male C57BL/6J mice as described (Lake et al., J. Lipid Res 46:2477-2487, 2005). Total RNA was extracted using Trizol (Invitrogen) and purified using the RNeasy kit (Qiagen). RNA from human tissues was obtained from Clontech (Mountain View, Calif.). […] Biol. Chem. 281:27167-27177, 2006). Gene expression was also measured by real-time PCR. (n=3-6 mice per group)*p<0.05. Taqman real-time quantitative PCR was performed on a 7900HT fast real-time PCR system (Applied Biosystems) according to the manufacturer's instructions using 18S as an endogenous control as described before (Lake et al., J. Lipid Res 46:2477-2487, 2005). Pre-designed gene-specific primers and probes were obtained from Applied Biosystems. […] Neutral lipid accumulation in formalin-fixed adipocytes was determined by oil red O staining according to methods well known in the art.

3T3-L1 cells [2] = experiment: 3T3-L1 adipocyte differentiation, lipid accumulation by oil red O staining; conditions: data not shown
Experimental: 3T3-L1 cells were maintained in DMEM containing 20% calf serum in an atmosphere of 10% CO2 at 37° C. Two days post-confluence, cells were induced to differentiate into adipocyte using DMEM containing 10% FBS supplemented with 500 μM 3-isobutyl-1-methylxanthine, 1 μM dexamethasone and 1.7 μM insulin for 4 days, followed by DMEM containing 10% FBS and 0.85 μM insulin for 2 days, then DMEM containing only 10% FBS for an additional 2-4 days. Neutral lipid accumulation in formalin-fixed adipocytes was determined by oil red O staining according to methods well known in the art.

Ccdc80 mRNA [3] = experiment: Silencing of Ccdc80 by RNA interference in stable 3T3-L1 cell lines, Ccdc80 mRNA by real-time PCR; conditions: stable 3T3-L1 line, vs non-silencing shRNA
Experimental: RNA from undifferentiated and differentiated 3T3-L1 adipocytes, tissues from normal, 8- to 12-week-old male C57BL/6J mice, as well as tissues from 10-week-old male ob/ob and age-matched wild-type control mice, was obtained as described (Lake et al., J. Lipid Res 46:2477-2487, 2005). For thiazolidinedione (TZD) treatment, 10-week-old male ob/ob mice were gavaged once per day with 15 mg/kg rosiglitazone or vehicle for 21 days. Primary adipocytes and stromal vascular fraction were prepared from the epididymal adipose tissue of 8- to 12-week-old male C57BL/6J mice as described (Lake et al., J. Lipid Res 46:2477-2487, 2005). Total RNA was extracted using Trizol (Invitrogen) and purified using the RNeasy kit (Qiagen). RNA from human tissues was obtained from Clontech (Mountain View, Calif.). Gene expression profiling was performed using the Mouse Genome 430 2.0 array (Affymetrix) as previously described (Berasi et al., J. Biol. Chem. 281:27167-27177, 2006). Gene expression was also measured by real-time PCR. (n=3-6 mice per group)*p<0.05. Taqman real-time quantitative PCR was performed on a 7900HT fast real-time PCR system (Applied Biosystems) according to the manufacturer's instructions using 18S as an endogenous control as described before (Lake et al., J. Lipid Res 46:2477-2487, 2005). Pre-designed gene-specific primers and probes were obtained from Applied Biosystems. […]

Ccdc80 = experiment: Secretion of Ccdc80 from 3T3-L1 cells, western blot of conditioned medium; conditions: growth-arrested and terminally differentiated 3T3-L1, vs non-silencing shRNA
Experimental: The Ccdc80-FLAG containing expression vector (pSMED2-Ccdc80-FLAG), as well as a control vector (pSMED2) were transfected into HEK293 T cells. In particular, HEK293T were seeded at a density of 2×10^6 cells in 10-cm Petri dishes. Cells were transfected with pSmed2 or pSmed2-Ccdc80-FLAG using Fugene6 (Roche). Two days after transfection, cells were placed in serum-free DMEM and medium was collected 24 hr later. Endogenous secretion of Ccdc80 was evaluated in 3T3-L1 preadipocytes and fully differentiated adipocytes. 3T3-L1 cells were rinsed twice with PBS and incubated in serum-free DMEM for 48 hrs before medium was collected. Conditioned media were analyzed by 4-10% SDS-PAGE followed by silver staining or immunological detection with anti-FLAG M2 (293T) or anti-Ccdc80 (3T3-L1) antibodies.

3T3-L1 cells [4] = experiment: mRNA expression of genes involved in adipogenesis, metabolism and signaling in 3T3-L1 cells (microarray, real-time PCR)
Experimental: (§1) RNA from undifferentiated and differentiated 3T3-L1 adipocytes, tissues from normal, 8- to 12-week-old male C57BL/6J mice, as well as tissues from 10-week-old male ob/ob and age-matched wild-type control mice, was obtained as described (Lake et al., J. Lipid Res 46:2477-2487, 2005). For thiazolidinedione (TZD) treatment, 10-week-old male ob/ob mice were gavaged once per day with 15 mg/kg rosiglitazone or vehicle for 21 days. Primary adipocytes and stromal vascular fraction were prepared from the epididymal adipose tissue of 8- to 12-week-old male C57BL/6J mice as described (Lake et al., J. Lipid Res 46:2477-2487, 2005). Total RNA was extracted using Trizol (Invitrogen) and purified using the RNeasy kit (Qiagen). RNA from human tissues was obtained from Clontech (Mountain View, Calif.). Gene expression profiling was performed using the Mouse Genome 430 2.0 array (Affymetrix) as previously described (Berasi et al., J. Biol. Chem. 281:27167-27177, 2006). Gene expression was also measured by real-time PCR. (n=3-6 mice per group)*p<0.05. Taqman real-time quantitative PCR was performed on a 7900HT fast real-time PCR system (Applied Biosystems) according to the manufacturer's instructions using 18S as an endogenous control as described before (Lake et al., J. Lipid Res 46:2477-2487, 2005). Pre-designed gene-specific primers and probes were obtained from Applied Biosystems. Data shown in FIGS. 1A-E and 1G, FIG. 3 B-D, FIG. 4D, FIG. 5A, C, D, FIG. 6, and FIG. 7A are obtained by real-time PCR; data shown in FIG. 1F, and FIG. 4C are derived from microarray analysis.

Akt and ERK = experiment: Insulin stimulation and immunoblot analysis of Akt and ERK phosphorylation in 3T3-L1 cells; conditions: Ccdc80-KD cells
Experimental: Differentiated 3T3-L1 adipocytes were deprived of serum for 2 hr before stimulation with 10 nM insulin for 10 min. Cells were rinsed twice in ice-cold PBS and lysed as previously described (Tremblay and Marette, J. Biol. Chem. 276:38052-38060, 2001). Equal amounts of proteins were separated on 4-12% SDS-PAGE and transferred to nitrocellulose membranes. Phosphorylation of Akt (Ser473) and ERK-½ (Thr202/Tyr204) was determined using phospho-specific antibodies (Cell Signaling Technologies).

[5] = test system: Wnt/β-catenin signaling pathway; experiment: Wnt/β-catenin pathway gene expression in 3T3-L1 cells, real-time PCR low-density array
Experimental: as §1

[6] = test system: TCF-mediated transcriptional activity; experiment: TOPFLASH luciferase reporter assay in 3T3-L1 cells; conditions: vs non-silencing shRNA
Experimental: HepG2 cells were seeded at a density of 8×10^4 cells per well in 24-well plates and grown for 24 hr in antibiotic-free DMEM containing 10% FBS. Cells were transfected with 0.8 μg TOPFLASH and 0.2 μg β-galactosidase reporter plasmids using Lipofectamine 2000 (Invitrogen), rinsed with PBS 4 hr later and infected with adenovirus encoding either GFP or Ccdc80 in opti-MEM. Serum (final concentration: 10% FBS) was added to each well 2 hr after infection and cells were collected 24 hr later. 3T3-L1 cells were seeded at a density of 2.5×10^5 cells per well in 24-well plates. Cells were transfected with 1 μg TOPFLASH and 0.2 μg β-galactosidase reporter plasmids using Fugene 6 and grown in DMEM containing 20% calf serum until 2 days post-confluency. Cells were collected prior to and 24, 48 and 96 hr after induction of differentiation with insulin, 3-isobutyl-1-methylxanthine and dexamethasone as described above. Luciferase and β-galactosidase activities were measured according to manufacturer's instructions (Promega). Luciferase value was normalized to β-galactosidase activity.

3T3-L1 cells [7] = experiment: Proliferation of 3T3-L1 pre-adipocytes; conditions: stable retroviral expression in 3T3-L1 cells
[8] = Ccdc80-KD cells, end of differentiation, microarray

## CC(C)Cn1c(=O)n(C)c(=O)c2[nH]cnc21 [IBMX, 3-isobutyl-1-methylxanthine]
Ccdc80 mRNA [1]
  Ccdc80 mRNA levels: significantly reduce

## N#CC(=C(/N)Sc1ccccc1N)/C(C#N)=C(\N)Sc1ccccc1N [U0126]
3T3-L1 cells [2]; Ccdc80-KD cells, 1 or 10 μM
  reversal of inhibited adipogenesis phenotype: no reversal of phenotype
3T3-L1 cells [2]; control cells, treatment during clonal expansion
  adipogenesis of control cells: inhibited adipogenesis

## insulin
Ccdc80 mRNA [1]
  Ccdc80 mRNA levels: significantly reduce

B1: Ccdc80 shRNA: short hairpin RNA against mouse Ccdc80 (position 2015-2037), encoded by SEQ ID NO: 3, expressed from a retroviral vector (nucleic acid)
chain: UGCUGUUGACAGUGAGCGCCCUGAGAAGGAGAAGAAGAAAUAGUGAAGCCACAGAUGUAUUUCUUCUUCUCCUUCUCAGGUUGCCUACUGCCUCGGA
Ccdc80 mRNA [3]
  reduction of the expression of Ccdc80: 40-50%
Ccdc80
  secretion of Ccdc80 protein: markedly blunted the secretion
3T3-L1 cells [2]; knockdown cell line, end of the differentiation protocol
  ability to differentiate into adipocytes (oil red O staining): reduced oil red O staining
3T3-L1 cells [4]; Ccdc80-KD cells
  expression of GLUT1: unchanged
  expression of GLUT4: decreased
3T3-L1 cells [4]; [8]
  expression of C/EBPα and PPARγ: significantly decreased
  expression of KLF5 and TCF4: significantly increased
  expression of genes involved in lipid metabolism (aP2, CD36, DGAT1/2, LIPIN1, LPL and SCD1/2): impaired
3T3-L1 cells [4]; Ccdc80-KD cells, real-time PCR, maintained throughout terminal differentiation
  magnitude of induction of aP2, C/EBPα and PPARγ during clonal expansion: severely attenuated
3T3-L1 cells [4]; control vs knockdown cells
  expression of common mediators of the insulin signaling pathway: no obvious difference
Akt and ERK; 10 nM insulin for 10 min
  insulin-stimulated phosphorylation of Akt and ERK1/2: unaffected
Akt and ERK; no insulin
  basal phosphorylation of ERK1/2: elevated
[5]; 3T3-L1, change from growth arrest to clonal expansion, adenovirus at MOI 2000
  repression of Cyclin D1 mRNA levels by adipogenic inducers during clonal expansion: severely compromised
[5]; Ccdc80-KD cells during differentiation
  expression of β-catenin signaling mediators (APC, β-catenin, Dvl-1, Frizzled-1, GSK3 A, LRP5/6 and Wnt10b): Only very little changes
[5]; Ccdc80-KD cells, after terminal differentiation
  TCF4 mRNA levels: increased
[5]; Ccdc80-KD cells, following clonal expansion
  expression of LEF1: down-regulation
[6]; growth arrest (T=0)
  TOPFLASH activity: similar
[6]; throughout clonal expansion (24, 48 and 96 hr after induction)
  TOPFLASH activity: significantly more elevated
3T3-L1 cells [7]
  proliferation of pre-adipocyte: increased
